Laboratory results taken from patent US20050026838A1.
Values belong to the molecule of their own block, whether it stands above or below them.

Target: [125I]-FGF-1 binding sites on membranes prepared from adult rat cortex
Assay: displacement of [125I]-FGF-1 by unlabelled FGF, membranes prepared from adult rat cortex

IC50: 0.2 nM
Molecule: FGF-2 (basic FGF) (from UniProt P09038 143-288) (ligand)

IC50: 1 nM
B1: Fibroblast Growth Factor 13 (recombinant human FGF-13, expressed in Escherichia coli) (ligand)
chain: MQGENHPSPNFNQYVRDQGAMTDQLSRRQIREYQLYSRTSGKHVQVTGRRISATAEDGNKFAKLIVETDTFGSRVRIKGAESEKYICMNKRGKLIGKPSGKSKDCVFTEIVLENNYTAFQNARHEGWFMAFTRQGRPRQASRSRQNQREAHFIKRLYQGQLPFPNHAEKQKQFEFVGSAPTRRTKRTRRPQPLT
